Measured values as given in the supplement of paper PMC7877785.
± gives the uncertainty stated by the source.

Test: self-splicing fitness, log relative to wild type (ln ratio); higher = more splicing; Tetrahymena group I intron in knt gene, E. coli kanamycin selection, DiMSum; sequences stand for … in CUCUCU…GGAGGGAAAAGUUAUCAGGCAUGCACCUGGUAGCUAGUCUUUAAACCAAUAGAUUGCAUCGGUUUAAAAGGCAAGACCGUCAAAUUGCGGGAAAGGGGUCAACAGCCGUUCAGUACCAAGUCUCAGGGGAAACUUUGAGAUGGCCUUGCAAAGGGUAUGGUAAUAAGCUGACGGACAUGGUCCUAACCACGCAGCCAAGUCCUAAGUCAACAGAUCUUCUGUUGAUAUGGAUGCAGUUCACAGACUAAAUGUCGGUCGGGGAAGAUGUAUUCUUCUCAUAAGAUAUAGUCGGACCUCUCCUUAAUGGGAGCUAGCGGAUGAAGUGAUGCAACACUGGAGCCGCUGGGAACUAAUUUGUAUGCGAAAGUAUAUUGAUUAGUUUUGGAGUACUCGUGGUCG
How it was run: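 The eight P1ex-region nucleotides of an intron in the knt kanamycin-resistance gene on pET-22b(+) were all randomised and the library put into E. coli BL21(DE3). Six replicate transformations were grown overnight at 37°C or 30°C on LB agar with or without 25 μg/mL kanamycin, together with 100 μg/mL carbenicillin, 50 μM IPTG and 0.2% rhamnose. Colonies were pooled and amplicon-sequenced on an Illumina HiSeq 2500. Fitness from DiMSum is the error-weighted combination of wild-type-normalised replicate fold changes, kanamycin over none.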

## AGAAAGCAAUAUUACGAACA
30 °C
  self-splicing fitness (ln): -0.534 ± 0.16
37 °C
  self-splicing fitness (ln): -0.288 ± 0.16

## AGAAAGCAAUAUUACGAACU
30 °C
  self-splicing fitness (ln): -0.0259 ± 0.096
37 °C
  self-splicing fitness (ln): 0.00874 ± 0.12

## AGAAAGCAAUAUUACGAAGG
30 °C
  self-splicing fitness (ln): -3.59 ± 0.25
37 °C
  self-splicing fitness (ln): -1.74 ± 0.2

## AGAAAGCAAUAUUACGACAC
30 °C
  self-splicing fitness (ln): -0.194 ± 0.11
37 °C
  self-splicing fitness (ln): -0.75 ± 0.13

## AGAAAGCAAUAUUACGAGGC
30 °C
  self-splicing fitness (ln): -3.15 ± 0.42
37 °C
  self-splicing fitness (ln): -2.66 ± 0.41

## AGAAAGCAAUAUUACGAGGU
30 °C
  self-splicing fitness (ln): -3.59 ± 0.26
37 °C
  self-splicing fitness (ln): -1.93 ± 0.23

## AGAAAGCAAUAUUACGCAGG
30 °C
  self-splicing fitness (ln): -2.89 ± 0.15
37 °C
  self-splicing fitness (ln): -1.4 ± 0.15

## AGAAAGCAAUAUUACGCAUU
30 °C
  self-splicing fitness (ln): -2.49 ± 0.15
37 °C
  self-splicing fitness (ln): -2.06 ± 0.22

## AGAAAGCAAUAUUACGCCAU
30 °C
  self-splicing fitness (ln): -3.16 ± 0.2
37 °C
  self-splicing fitness (ln): -2.21 ± 0.2

## AGAAAGCAAUAUUACGCCGG
30 °C
  self-splicing fitness (ln): -1.43 ± 0.25
37 °C
  self-splicing fitness (ln): -1.62 ± 0.24

## AGAAAGCAAUAUUACGCCUG
30 °C
  self-splicing fitness (ln): -0.436 ± 0.11
37 °C
  self-splicing fitness (ln): -0.62 ± 0.14

## AGAAAGCAAUAUUACGCGCU
30 °C
  self-splicing fitness (ln): -0.789 ± 0.15
37 °C
  self-splicing fitness (ln): -1.26 ± 0.2

## AGAAAGCAAUAUUACGCGUA
30 °C
  self-splicing fitness (ln): -1.71 ± 0.1
37 °C
  self-splicing fitness (ln): -0.388 ± 0.082

## AGAAAGCAAUAUUACGGAAC
30 °C
  self-splicing fitness (ln): -3.04 ± 0.25
37 °C
  self-splicing fitness (ln): -1.84 ± 0.29

## AGAAAGCAAUAUUACGGCCA
30 °C
  self-splicing fitness (ln): -0.632 ± 0.096
37 °C
  self-splicing fitness (ln): -0.181 ± 0.13

## AGAAAGCAAUAUUACGGCGG
30 °C
  self-splicing fitness (ln): -0.593 ± 0.1
37 °C
  self-splicing fitness (ln): -0.586 ± 0.14

## AGAAAGCAAUAUUACGGCUA
30 °C
  self-splicing fitness (ln): -0.324 ± 0.12
37 °C
  self-splicing fitness (ln): 0.117 ± 0.13

## AGAAAGCAAUAUUACGGGGA
30 °C
  self-splicing fitness (ln): -3.05 ± 0.17
37 °C
  self-splicing fitness (ln): -2.07 ± 0.17

## AGAAAGCAAUAUUACGGUCC
30 °C
  self-splicing fitness (ln): -0.555 ± 0.12
37 °C
  self-splicing fitness (ln): 0.317 ± 0.16

## AGAAAGCAAUAUUACGUACA
30 °C
  self-splicing fitness (ln): -0.839 ± 0.075
37 °C
  self-splicing fitness (ln): -0.379 ± 0.1

## AGAAAGCAAUAUUACGUACG
30 °C
  self-splicing fitness (ln): -1.26 ± 0.12
37 °C
  self-splicing fitness (ln): 0.0255 ± 0.13

## AGAAAGCAAUAUUACGUCAU
30 °C
  self-splicing fitness (ln): -1.55 ± 0.079
37 °C
  self-splicing fitness (ln): -0.954 ± 0.096

## AGAAAGCAAUAUUACGUGAA
30 °C
  self-splicing fitness (ln): -2.39 ± 0.13
37 °C
  self-splicing fitness (ln): -1.96 ± 0.12

## AGAAAGCAAUAUUACGUGAU
30 °C
  self-splicing fitness (ln): -2.17 ± 0.069
37 °C
  self-splicing fitness (ln): -1.25 ± 0.091

## AGAAAGCAAUAUUACGUUCC
30 °C
  self-splicing fitness (ln): -2.59 ± 0.43
37 °C
  self-splicing fitness (ln): -1.23 ± 0.39

## AGAAAGCAAUAUUACGUUUA
30 °C
  self-splicing fitness (ln): -1.96 ± 0.13
37 °C
  self-splicing fitness (ln): -1.04 ± 0.11

## AGAAAGCAAUAUUACGUUUC
30 °C
  self-splicing fitness (ln): -3.82 ± 0.15
37 °C
  self-splicing fitness (ln): -2.09 ± 0.1

## AGACAGCAAUAUUACGAAAA
37 °C
  self-splicing fitness (ln): -1.44 ± 0.29

## AGACAGCAAUAUUACGAAAC
30 °C
  self-splicing fitness (ln): -3.76 ± 0.27
37 °C
  self-splicing fitness (ln): -2.66 ± 0.34

## AGACAGCAAUAUUACGAAGC
37 °C
  self-splicing fitness (ln): -1.62 ± 0.28

## AGACAGCAAUAUUACGAAGG
30 °C
  self-splicing fitness (ln): -3.88 ± 0.18
37 °C
  self-splicing fitness (ln): -2.75 ± 0.23

## AGACAGCAAUAUUACGAAUC
37 °C
  self-splicing fitness (ln): -3.41 ± 0.47

## AGACAGCAAUAUUACGAAUU
30 °C
  self-splicing fitness (ln): -2.74 ± 0.1
37 °C
  self-splicing fitness (ln): -1.27 ± 0.11

## AGACAGCAAUAUUACGCAGC
30 °C
  self-splicing fitness (ln): -2.72 ± 0.23
37 °C
  self-splicing fitness (ln): -2.19 ± 0.39

## AGACAGCAAUAUUACGCAUC
30 °C
  self-splicing fitness (ln): -2.73 ± 0.11
37 °C
  self-splicing fitness (ln): -2.18 ± 0.16

## AGACAGCAAUAUUACGCAUU
30 °C
  self-splicing fitness (ln): -3.41 ± 0.12
37 °C
  self-splicing fitness (ln): -1.45 ± 0.087

## AGACAGCAAUAUUACGCGAG
30 °C
  self-splicing fitness (ln): -1.22 ± 0.091
37 °C
  self-splicing fitness (ln): -0.818 ± 0.094

## AGACAGCAAUAUUACGCGGA
30 °C
  self-splicing fitness (ln): -2.87 ± 0.14
37 °C
  self-splicing fitness (ln): -1.58 ± 0.12

## AGACAGCAAUAUUACGCUUA
30 °C
  self-splicing fitness (ln): -0.813 ± 0.086
37 °C
  self-splicing fitness (ln): -0.083 ± 0.12

## AGACAGCAAUAUUACGGAAG
30 °C
  self-splicing fitness (ln): -4.03 ± 0.3
37 °C
  self-splicing fitness (ln): -1.94 ± 0.18

## AGACAGCAAUAUUACGGAGC
30 °C
  self-splicing fitness (ln): -3.94 ± 0.17
37 °C
  self-splicing fitness (ln): -2.93 ± 0.24

## AGACAGCAAUAUUACGGCUA
30 °C
  self-splicing fitness (ln): -0.252 ± 0.08
37 °C
  self-splicing fitness (ln): -0.286 ± 0.083

## AGACAGCAAUAUUACGGGCA
30 °C
  self-splicing fitness (ln): -1.18 ± 0.075
37 °C
  self-splicing fitness (ln): -0.503 ± 0.079

## AGACAGCAAUAUUACGGUCC
30 °C
  self-splicing fitness (ln): -3.24 ± 0.27
37 °C
  self-splicing fitness (ln): -1.68 ± 0.28

## AGACAGCAAUAUUACGGUUU
30 °C
  self-splicing fitness (ln): -3.25 ± 0.11
37 °C
  self-splicing fitness (ln): -1.32 ± 0.082

## AGACAGCAAUAUUACGUACA
30 °C
  self-splicing fitness (ln): -0.745 ± 0.078
37 °C
  self-splicing fitness (ln): -0.238 ± 0.097

## AGACAGCAAUAUUACGUACG
30 °C
  self-splicing fitness (ln): -1.22 ± 0.07
37 °C
  self-splicing fitness (ln): -0.121 ± 0.094

## AGACAGCAAUAUUACGUCAA
30 °C
  self-splicing fitness (ln): -1.68 ± 0.1
37 °C
  self-splicing fitness (ln): -1.35 ± 0.09
